What all share (conditions): both partners purified
The target in one experiment is T1, vinculin D1 (aa 1–259) (UniProt P12003 1-259).
T1 construct: vinculin D1 fragment, aa 1-259, the first 2 four-helix bundles; in pGEX-TEV; also called vinculin aa 1 to 259 (D1); vinculin N-terminus; source: E. coli BL21-Gold, purified (glutathione-agarose, TEV cleavage, Mono Q or Mono S, S200)
T1 sequence (looked up): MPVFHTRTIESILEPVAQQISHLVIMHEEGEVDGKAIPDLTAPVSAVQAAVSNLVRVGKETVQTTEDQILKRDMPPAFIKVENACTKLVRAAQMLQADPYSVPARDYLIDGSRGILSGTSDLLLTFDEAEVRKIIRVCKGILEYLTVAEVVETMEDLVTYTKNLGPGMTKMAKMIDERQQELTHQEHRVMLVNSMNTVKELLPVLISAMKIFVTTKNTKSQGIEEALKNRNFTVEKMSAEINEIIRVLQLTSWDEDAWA
The experiment in a line: ITC; vinculin D1 injected into αT-catenin or αE-catenin fragment (or αT-catenin head–β-catenin complex) in the cell; 25 °C; 20 mM Hepes pH 8.0, 150 mM NaCl, 1 mM TCEP. Background: Isothermal titration calorimetry measures the heat released or taken up as one component is titrated into another.

For experiment [1], the target named is T2, αT-catenin head region (aa 1–659) (Mus musculus, UniProt Q65CL1 1-659).
T2 construct: αT-catenin, Mus musculus, head region (N- and M-domains), aa 1-659; in pGEX-TEV; also called αT-catenin head (1–659); αT-catenin N1-M3 (aa 1–659); source: E. coli BL21-Gold, purified (glutathione-agarose, TEV cleavage, Mono Q or Mono S, S200)
T2 sequence (looked up): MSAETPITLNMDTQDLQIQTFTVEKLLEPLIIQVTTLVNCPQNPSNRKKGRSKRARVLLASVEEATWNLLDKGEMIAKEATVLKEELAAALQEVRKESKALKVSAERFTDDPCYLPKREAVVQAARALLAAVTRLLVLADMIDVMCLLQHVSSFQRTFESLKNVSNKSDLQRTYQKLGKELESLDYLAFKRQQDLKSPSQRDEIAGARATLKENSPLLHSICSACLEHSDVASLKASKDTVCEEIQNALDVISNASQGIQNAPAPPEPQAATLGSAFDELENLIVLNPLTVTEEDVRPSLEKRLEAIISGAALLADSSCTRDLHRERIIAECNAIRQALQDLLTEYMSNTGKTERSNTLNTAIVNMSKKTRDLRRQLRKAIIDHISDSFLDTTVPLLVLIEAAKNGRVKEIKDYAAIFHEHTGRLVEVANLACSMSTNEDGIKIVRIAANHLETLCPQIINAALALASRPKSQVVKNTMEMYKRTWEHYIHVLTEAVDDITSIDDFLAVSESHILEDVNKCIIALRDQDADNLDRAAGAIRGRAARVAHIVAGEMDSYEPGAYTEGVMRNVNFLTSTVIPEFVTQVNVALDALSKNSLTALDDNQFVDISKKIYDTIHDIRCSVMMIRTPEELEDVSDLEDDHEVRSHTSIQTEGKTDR
The experiment in a line: ITC; β-catenin (110-150 μM) or β-catenin–Ncad_(cyto) complex (103-158 μM) injected into αT-catenin fragment in the cell; 25 °C; 20 mM Hepes pH 8.0, 150 mM NaCl, 1 mM TCEP.

Experiment [2] addresses T3, αT-catenin N1-N2 (aa 1–259) (Mus musculus, UniProt Q65CL1 1-259).
T3 construct: αT-catenin, Mus musculus, N1-N2, aa 1-259; in pGEX-TEV; also called αT-catenin WT N1-N2; αT-catenin N1-N2 (1–259); source: E. coli BL21-Gold, purified (glutathione-agarose, TEV cleavage, Mono Q or Mono S, S200)
T3 sequence (looked up): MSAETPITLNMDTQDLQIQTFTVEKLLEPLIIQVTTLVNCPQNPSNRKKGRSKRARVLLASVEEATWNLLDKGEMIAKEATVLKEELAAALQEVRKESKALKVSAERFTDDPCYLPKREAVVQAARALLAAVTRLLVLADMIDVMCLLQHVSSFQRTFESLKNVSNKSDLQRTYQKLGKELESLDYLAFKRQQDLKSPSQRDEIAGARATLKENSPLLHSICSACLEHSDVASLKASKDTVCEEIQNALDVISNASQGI
Described as above.

The results in this text go back to paper PMC8091058, “Distinct intramolecular interactions regulate autoinhibition of vinculin binding in αT-catenin and αE-catenin” (The Journal of Biological Chemistry, 2021).

What is called Kd is the constant that tells how readily two partners part at equilibrium. High values mean a looser complex, low ones a tighter complex.

B1: αE-catenin M1-M2 (aa 273–510) (domain or fragment, Mus musculus, UniProt P26231 273-510, looked up)
chain: GSGGELAYALNNFDKQIIVDPLSFSEERFRPSLEERLESIISGAALMADSSCTRDDRRERIVAECNAVRQALQDLLSEYMGNAGRKERSDALNSAIDKMTKKTRDLRRQLRKAVMDHVSDSFLETNVPLLVLIEAAKNGNEKEVKEYAQVFREHANKLIEVANLACSISNNEEGVKLVRMSASQLEALCPQVINAALALAAKPQSKLAQENMDLFKEQWEKQVRVLTDAVDDITSIDD
notes: αE-catenin, Mus musculus, M1-M2, aa 273-510; in pGEX-TEV; also called αE-catenin M1-M2 (273–510); source: E. coli BL21-Gold, purified (glutathione-agarose, TEV cleavage, Mono Q or Mono S, S200)
Regarding B1, in the experiment with vinculin D1 (aa 1–259), the Kd is 0.0319 ± 0.0091 µM.

B2: β-catenin–N-cadherin cytoplasmic tail complex (complex)
chain 1: MATQADLMELDMAMEPDRKAAVSHWQQQSYLDSGIHSGATTTAPSLSGKGNPEEEDVDTSQVLYEWEQGFSQSFTQEQVADIDGQYAMTRAQRVRAAMFPETLDEGMQIPSTQFDAAHPTNVQRLAEPSQMLKHAVVNLINYQDDAELATRAIPELTKLLNDEDQVVVNKAAVMVHQLSKKEASRHAIMRSPQMVSAIVRTMQNTNDVETARCTAGTLHNLSHHREGLLAIFKSGGIPALVKMLGSPVDSVLFYAITTLHNLLLHQEGAKMAVRLAGGLQKMVALLNKTNVKFLAITTDCLQILAYGNQESKLIILASGGPQALVNIMRTYTYEKLLWTTSRVLKVLSVCSSNKPAIVEAGGMQALGLHLTDPSQRLVQNCLWTLRNLSDAATKQEGMEGLLGTLVQLLGSDDINVVTCAAGILSNLTCNNYKNKMMVCQVGGIEALVRTVLRAGDREDITEPAICALRHLTSRHQEAEMAQNAVRLHYGLPVVVKLLHPPSHWPLIKATVGLIRNLALCPANHAPLREQGAIPRLVQLLVRAHQDTQRRTSMGGTQQQFVEGVRMEEIVEGCTGALHILARDVHNRIVIRGLNTIPLFVQLLYSPIENIQRVAAGVLCELAQDKEAAEAIEAEGATAPLTELLHSRNEGVATYAAAVLFRMSEDKPQDYKKRLSVELTSSLFRTEPMAWNETADLGLDIGAQGEALGYRQDDPSYRSFHSGGYGQDALGMDPMMEHEMGGHHPGADYPVDGLPDLGHAQDLMDGLPPGDSNQLAWFDTDL
chain 2: MKRRDKERQAKQLLIDPEDDVRDNILKYDEEGGGEEDQDYDLSQLQQPDTVEPDAIKPVGIRRLDERPIHAEPQYPVRSAAPHPGDIGDFINEGLKAADNDPTAPPYDSLLVFDYEGSGSTAGSLSSLNSSSSGGDQDYDYLNDWGPRFKKLADMYGGGDD
notes: β-catenin, Mus musculus, full length; N-cadherin cytoplasmic tail (Ncad_(cyto)); the methods name no plasmid for the N-cadherin tail; also called β-catenin–Ncad_(cyto); β-cat–Ncad_(cyto); source: β-catenin: E. coli BL21-Gold, purified
For the molecule B2, the dH in experiment [1] is -113 ± 0.837 kJ/mol; in experiment [2] it was -79.1 ± 4.18 kJ/mol.
